Where no end group is shown, it is not given here.
Key:
Test in all cases: cell-based or functional assay
[1] = molecular target: PTGER4 (UniProt P35408 1-488)
[2] = molecular target: ADRB1 (UniProt P08588 1-477)
[3] = molecular target: EDG1 (UniProt P21453 1-382)
[4] = molecular target: OPRD1 (UniProt P41143 1-372)
[5] = molecular target: CALCR-RAMP2 (UniProt P30988 25-474; O60895 43-175, limits assumed)
[6] = molecular target: SSTR3 (UniProt P32745 1-418)
[7] = molecular target: MC3R (UniProt P41968 1-323)
[8] = molecular target: PROKR2 (UniProt Q8NFJ6 1-384)
[9] = molecular target: AVPR2 (UniProt P30518 1-371)
[10] = molecular target: MC1R (UniProt Q01726 1-317)
[11] = molecular target: T1, TACR3 (UniProt P29371 1-465)
T1 sequence (looked up): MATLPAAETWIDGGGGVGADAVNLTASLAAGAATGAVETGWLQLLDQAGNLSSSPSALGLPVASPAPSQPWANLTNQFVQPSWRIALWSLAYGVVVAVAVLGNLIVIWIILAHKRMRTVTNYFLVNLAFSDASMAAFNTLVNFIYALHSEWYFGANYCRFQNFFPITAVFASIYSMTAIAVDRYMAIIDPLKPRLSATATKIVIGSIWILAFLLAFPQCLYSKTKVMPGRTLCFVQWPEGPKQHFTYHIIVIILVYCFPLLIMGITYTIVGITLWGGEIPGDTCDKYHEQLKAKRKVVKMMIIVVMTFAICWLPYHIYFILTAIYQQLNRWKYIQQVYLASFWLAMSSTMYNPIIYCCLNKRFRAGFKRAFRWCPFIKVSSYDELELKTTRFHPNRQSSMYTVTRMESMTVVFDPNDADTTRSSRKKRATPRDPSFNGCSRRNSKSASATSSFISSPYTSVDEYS

[12] = molecular target: T2, CXCR1 (UniProt P25024 1-350)
T2 sequence (looked up): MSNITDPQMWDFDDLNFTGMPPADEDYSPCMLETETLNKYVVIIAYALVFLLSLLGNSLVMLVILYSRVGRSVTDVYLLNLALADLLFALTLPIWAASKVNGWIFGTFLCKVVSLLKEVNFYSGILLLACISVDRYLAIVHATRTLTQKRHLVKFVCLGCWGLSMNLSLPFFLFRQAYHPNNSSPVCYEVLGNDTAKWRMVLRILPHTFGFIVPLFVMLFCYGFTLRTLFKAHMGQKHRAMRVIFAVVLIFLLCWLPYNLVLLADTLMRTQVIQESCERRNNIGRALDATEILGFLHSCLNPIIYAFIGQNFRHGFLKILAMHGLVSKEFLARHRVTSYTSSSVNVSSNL

[13] = molecular target: T3, GALR2 (UniProt O43603 1-387)
T3 sequence (looked up): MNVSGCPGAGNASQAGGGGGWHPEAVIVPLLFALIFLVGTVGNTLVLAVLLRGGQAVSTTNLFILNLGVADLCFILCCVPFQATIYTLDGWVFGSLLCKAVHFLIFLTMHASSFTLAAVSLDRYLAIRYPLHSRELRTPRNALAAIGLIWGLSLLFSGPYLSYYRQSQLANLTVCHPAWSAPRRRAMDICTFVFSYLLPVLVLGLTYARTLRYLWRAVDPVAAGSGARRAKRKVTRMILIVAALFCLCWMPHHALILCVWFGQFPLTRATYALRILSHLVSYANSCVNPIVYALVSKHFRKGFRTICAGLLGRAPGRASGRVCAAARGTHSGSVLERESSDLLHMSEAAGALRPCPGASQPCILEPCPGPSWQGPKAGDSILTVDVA

[14] = molecular target: HRH2 (UniProt P25021 1-359)
[15] = molecular target: T4, VIPR2 (UniProt P41587 24-438)
T4 sequence (looked up): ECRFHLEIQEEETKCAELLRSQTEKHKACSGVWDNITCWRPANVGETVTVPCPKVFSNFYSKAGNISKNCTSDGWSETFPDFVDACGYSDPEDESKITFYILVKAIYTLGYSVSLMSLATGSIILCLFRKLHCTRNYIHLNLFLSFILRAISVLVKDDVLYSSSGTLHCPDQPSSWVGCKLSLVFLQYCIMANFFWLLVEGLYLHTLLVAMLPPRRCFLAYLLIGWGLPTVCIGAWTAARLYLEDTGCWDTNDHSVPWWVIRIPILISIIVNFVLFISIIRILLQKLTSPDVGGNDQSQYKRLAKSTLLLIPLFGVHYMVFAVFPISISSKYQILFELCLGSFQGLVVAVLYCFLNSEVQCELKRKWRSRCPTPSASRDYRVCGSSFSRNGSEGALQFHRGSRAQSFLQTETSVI

[16] = molecular target: T5, HCRTR2 (UniProt O43614 1-444)
T5 sequence (looked up): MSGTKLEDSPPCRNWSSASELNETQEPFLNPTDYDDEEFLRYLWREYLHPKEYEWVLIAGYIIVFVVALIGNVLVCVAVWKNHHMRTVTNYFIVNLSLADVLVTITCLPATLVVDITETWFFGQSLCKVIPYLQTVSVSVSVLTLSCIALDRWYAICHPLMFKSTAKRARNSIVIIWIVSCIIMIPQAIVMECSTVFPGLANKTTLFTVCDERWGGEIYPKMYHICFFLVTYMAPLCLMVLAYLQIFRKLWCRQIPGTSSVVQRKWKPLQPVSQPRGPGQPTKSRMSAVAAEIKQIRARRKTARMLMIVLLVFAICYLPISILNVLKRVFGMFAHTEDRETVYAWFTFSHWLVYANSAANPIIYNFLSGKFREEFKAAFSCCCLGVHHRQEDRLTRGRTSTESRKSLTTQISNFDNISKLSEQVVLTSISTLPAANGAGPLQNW

[17] = molecular target: HTR1B (UniProt P28222 1-390)
Chain of HTR1B (P28222 whole entry): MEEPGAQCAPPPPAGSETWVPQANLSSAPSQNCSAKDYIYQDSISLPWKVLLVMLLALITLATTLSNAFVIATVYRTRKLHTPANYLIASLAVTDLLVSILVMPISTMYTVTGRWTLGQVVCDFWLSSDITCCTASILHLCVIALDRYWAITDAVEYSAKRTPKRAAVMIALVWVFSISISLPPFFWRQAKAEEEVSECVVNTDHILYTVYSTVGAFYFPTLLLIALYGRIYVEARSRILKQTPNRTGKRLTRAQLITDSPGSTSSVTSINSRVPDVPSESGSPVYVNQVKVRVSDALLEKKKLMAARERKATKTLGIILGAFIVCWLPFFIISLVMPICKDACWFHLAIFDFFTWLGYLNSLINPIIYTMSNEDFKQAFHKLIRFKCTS

Chain of ADRB1 (P08588 whole entry): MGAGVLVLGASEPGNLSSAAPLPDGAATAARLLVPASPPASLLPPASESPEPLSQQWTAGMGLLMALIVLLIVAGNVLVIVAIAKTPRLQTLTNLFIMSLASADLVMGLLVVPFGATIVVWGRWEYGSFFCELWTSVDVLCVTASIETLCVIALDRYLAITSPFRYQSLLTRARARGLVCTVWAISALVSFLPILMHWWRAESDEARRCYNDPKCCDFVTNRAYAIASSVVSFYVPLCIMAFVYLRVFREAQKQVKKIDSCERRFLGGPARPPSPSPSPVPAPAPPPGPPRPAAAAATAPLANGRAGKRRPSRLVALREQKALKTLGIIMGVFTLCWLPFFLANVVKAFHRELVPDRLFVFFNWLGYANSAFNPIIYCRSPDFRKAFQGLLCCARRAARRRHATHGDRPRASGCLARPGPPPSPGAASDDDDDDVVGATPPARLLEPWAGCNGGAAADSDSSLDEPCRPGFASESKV
Chain of MC1R (Q01726 whole entry): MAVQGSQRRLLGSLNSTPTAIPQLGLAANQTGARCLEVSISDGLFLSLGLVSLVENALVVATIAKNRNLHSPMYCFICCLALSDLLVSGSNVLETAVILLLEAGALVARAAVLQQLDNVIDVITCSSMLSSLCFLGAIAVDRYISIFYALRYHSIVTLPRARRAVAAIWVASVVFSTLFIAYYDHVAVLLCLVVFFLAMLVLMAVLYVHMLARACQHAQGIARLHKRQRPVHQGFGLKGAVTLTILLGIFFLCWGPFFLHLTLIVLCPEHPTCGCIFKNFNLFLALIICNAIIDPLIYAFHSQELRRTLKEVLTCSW
Chain of CALCR-RAMP2 (P30988 25-474 limits assumed, chain 1 of 2): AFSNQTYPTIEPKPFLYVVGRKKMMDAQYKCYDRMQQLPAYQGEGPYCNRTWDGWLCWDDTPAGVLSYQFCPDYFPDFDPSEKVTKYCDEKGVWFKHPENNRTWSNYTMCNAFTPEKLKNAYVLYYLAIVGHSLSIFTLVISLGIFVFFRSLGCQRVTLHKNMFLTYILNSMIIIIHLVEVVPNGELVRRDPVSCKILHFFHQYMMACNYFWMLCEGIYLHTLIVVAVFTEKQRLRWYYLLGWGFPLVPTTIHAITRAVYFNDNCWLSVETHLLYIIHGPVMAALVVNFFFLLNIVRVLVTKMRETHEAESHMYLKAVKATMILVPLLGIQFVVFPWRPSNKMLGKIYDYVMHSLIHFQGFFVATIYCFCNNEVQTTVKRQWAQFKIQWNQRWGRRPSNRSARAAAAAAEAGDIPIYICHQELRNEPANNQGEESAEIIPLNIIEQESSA
Chain of CALCR-RAMP2 (O60895 43-175 limits assumed, chain 2 of 2): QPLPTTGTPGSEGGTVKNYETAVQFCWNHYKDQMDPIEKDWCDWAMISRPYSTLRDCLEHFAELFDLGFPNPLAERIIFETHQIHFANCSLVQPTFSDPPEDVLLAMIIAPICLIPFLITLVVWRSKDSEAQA
Chain of PTGER4 (P35408 whole entry): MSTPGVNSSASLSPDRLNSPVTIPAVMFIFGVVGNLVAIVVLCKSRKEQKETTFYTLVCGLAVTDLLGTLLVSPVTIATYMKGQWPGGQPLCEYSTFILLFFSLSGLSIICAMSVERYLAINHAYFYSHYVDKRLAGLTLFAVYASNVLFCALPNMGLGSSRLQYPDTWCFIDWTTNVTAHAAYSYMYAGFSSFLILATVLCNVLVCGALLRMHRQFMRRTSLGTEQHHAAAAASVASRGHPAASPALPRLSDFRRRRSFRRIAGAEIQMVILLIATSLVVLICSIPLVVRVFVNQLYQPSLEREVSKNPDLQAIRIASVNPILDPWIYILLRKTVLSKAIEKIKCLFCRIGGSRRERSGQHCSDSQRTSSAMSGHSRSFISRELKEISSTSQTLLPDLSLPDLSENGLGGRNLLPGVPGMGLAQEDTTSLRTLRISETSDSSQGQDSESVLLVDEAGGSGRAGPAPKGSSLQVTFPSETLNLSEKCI
Chain of EDG1 (P21453 whole entry): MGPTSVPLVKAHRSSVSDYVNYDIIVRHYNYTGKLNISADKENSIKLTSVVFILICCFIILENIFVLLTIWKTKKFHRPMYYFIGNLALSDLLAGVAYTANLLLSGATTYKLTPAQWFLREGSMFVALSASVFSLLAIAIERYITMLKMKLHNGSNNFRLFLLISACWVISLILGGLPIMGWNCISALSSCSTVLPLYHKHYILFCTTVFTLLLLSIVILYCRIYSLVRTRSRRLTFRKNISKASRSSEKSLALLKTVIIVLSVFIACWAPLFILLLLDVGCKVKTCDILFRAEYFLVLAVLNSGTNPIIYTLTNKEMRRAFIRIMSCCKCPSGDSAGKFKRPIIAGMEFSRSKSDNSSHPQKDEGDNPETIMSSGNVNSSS
Chain of SSTR3 (P32745 whole entry): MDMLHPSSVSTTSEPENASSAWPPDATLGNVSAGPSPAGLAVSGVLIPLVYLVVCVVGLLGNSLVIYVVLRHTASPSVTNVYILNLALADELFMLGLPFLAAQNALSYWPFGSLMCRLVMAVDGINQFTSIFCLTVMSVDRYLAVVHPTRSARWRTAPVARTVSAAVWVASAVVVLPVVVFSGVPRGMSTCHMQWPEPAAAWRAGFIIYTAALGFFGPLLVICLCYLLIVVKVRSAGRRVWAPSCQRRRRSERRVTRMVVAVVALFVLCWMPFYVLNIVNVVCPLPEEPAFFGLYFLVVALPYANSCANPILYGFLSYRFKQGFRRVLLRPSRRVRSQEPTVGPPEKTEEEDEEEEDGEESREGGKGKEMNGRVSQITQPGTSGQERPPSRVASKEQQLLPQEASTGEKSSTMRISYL
Chain of PROKR2 (Q8NFJ6 whole entry): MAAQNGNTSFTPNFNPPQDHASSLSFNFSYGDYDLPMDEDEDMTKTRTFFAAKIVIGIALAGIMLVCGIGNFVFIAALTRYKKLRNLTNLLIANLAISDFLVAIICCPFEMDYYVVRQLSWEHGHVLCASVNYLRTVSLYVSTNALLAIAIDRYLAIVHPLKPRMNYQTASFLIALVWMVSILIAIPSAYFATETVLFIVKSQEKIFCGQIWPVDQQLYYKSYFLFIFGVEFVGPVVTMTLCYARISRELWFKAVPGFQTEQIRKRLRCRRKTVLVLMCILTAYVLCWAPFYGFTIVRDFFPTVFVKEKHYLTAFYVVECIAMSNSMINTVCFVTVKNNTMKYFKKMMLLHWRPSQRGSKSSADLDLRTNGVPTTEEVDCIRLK
Chain of MC3R (P41968 whole entry): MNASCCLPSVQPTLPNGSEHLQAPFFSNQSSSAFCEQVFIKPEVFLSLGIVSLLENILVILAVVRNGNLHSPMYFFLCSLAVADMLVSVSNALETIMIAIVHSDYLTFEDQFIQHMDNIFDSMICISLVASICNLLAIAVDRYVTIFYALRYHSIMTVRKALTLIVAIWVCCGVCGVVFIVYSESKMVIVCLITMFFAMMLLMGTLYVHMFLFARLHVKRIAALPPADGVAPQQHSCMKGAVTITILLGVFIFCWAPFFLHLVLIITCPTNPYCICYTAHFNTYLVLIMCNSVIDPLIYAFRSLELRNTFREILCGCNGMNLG
Chain of OPRD1 (P41143 whole entry): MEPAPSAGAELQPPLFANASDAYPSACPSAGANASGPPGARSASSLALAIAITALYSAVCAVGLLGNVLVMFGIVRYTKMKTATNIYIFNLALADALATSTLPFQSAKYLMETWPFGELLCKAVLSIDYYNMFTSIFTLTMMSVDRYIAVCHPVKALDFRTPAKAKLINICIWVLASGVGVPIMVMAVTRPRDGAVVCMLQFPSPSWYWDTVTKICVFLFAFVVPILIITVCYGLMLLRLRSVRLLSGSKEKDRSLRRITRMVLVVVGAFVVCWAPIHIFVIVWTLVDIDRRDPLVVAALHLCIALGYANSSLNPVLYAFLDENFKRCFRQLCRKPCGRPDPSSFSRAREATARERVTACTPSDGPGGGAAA
Chain of HRH2 (P25021 whole entry): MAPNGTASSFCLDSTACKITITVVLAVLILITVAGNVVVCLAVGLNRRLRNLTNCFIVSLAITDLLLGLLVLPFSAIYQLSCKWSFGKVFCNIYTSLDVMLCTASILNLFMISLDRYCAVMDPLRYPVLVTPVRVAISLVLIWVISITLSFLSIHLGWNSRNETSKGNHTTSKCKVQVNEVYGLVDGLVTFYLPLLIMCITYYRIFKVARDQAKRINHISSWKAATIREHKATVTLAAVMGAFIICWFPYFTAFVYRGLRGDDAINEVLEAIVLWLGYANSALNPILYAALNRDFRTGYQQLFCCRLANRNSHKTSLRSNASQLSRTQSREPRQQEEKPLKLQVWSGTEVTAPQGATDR

QATVGDVNTDRPGLLDLK (also: synthesised on Rink amide resin, C-terminal amide not given here outright) [octadecaneuropeptide (ODN)]
% Activity, arrestin, antagonist mode, 2.5 uM [1]: -15.1%
% Activity, arrestin, antagonist mode, 2.5 uM [2]: 12.6%
% Activity, arrestin, antagonist mode, 2.5 uM [3]: -25.9%
% Activity, arrestin, antagonist mode, 2.5 uM [4]: 10%
% Activity, arrestin, antagonist mode, 2.5 uM [5]: -17.8%
% Activity, arrestin, antagonist mode, 2.5 uM [6]: 4.2%
% Activity, arrestin, antagonist mode, 2.5 uM [7]: -2.1%
% Activity, arrestin, antagonist mode, 2.5 uM [8]: -17.5%
% Activity, arrestin, antagonist mode, 2.5 uM [9]: -11.2%
% Activity, arrestin, antagonist mode, 2.5 uM [10]: 0.4%
% Activity, arrestin, antagonist mode, 2.5 uM [11]: -5.8%
% Activity, arrestin, antagonist mode, 2.5 uM [12]: 10.2%
% Activity, arrestin, antagonist mode, 2.5 uM [13]: -29.7%
% Activity, arrestin, antagonist mode, 2.5 uM [14]: -13.3%
% Activity, arrestin, antagonist mode, 2.5 uM [15]: -6.7%
% Activity, arrestin, antagonist mode, 2.5 uM [16]: -2.7%
% Activity, arrestin, antagonist mode, 2.5 uM [17]: -11.9%
